Experimental data published in publication PMC6270503, “The Clip-Segment of the von Willebrand Domain 1 of the BMP Modulator Protein Crossveinless 2 Is Preformed” (Molecules, 2013).

Molecular target: T1, E. coli derived recombinant human BMP-2 (human, UniProt P12643 283-396)
T1 construct: Bone morphogenetic protein 2, human, recombinant from E. coli; also called bone morphogenetic protein 2
Experiment: SPR; ProteON XPR36, GLC chip; BMP-2 immobilised by amine coupling (1000-2000 RU), CV2 VWC1 proteins as analytes in six concentrations; 25 °C, HBST500 (10 mM HEPES pH 7.4, 500 mM NaCl, 0.005% Tween20); global Langmuir 1:1 fit, KD = koff/kon, or from dose-dependency of equilibrium binding for weak or fast binders; apparent KD
Details: both partners purified

T1 sequence (P12643 283-396): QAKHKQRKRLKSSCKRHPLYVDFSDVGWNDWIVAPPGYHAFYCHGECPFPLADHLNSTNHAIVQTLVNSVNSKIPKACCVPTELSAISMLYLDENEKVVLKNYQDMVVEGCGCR

B1: CV2 VWC1 C9A/C31A (domain or fragment)
chain: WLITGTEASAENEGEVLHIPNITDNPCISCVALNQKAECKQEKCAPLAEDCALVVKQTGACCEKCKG
modifications: Mature numbering = entity position minus 3 (C9A/C31A = C12A/C34A). Introduced N-terminal Trp kept; vector Gly-Ser left out. Remaining native disulfides, including Cys26-Cys60, Cys43-Cys61 and …
Kd: ≥ 3.3 µM
koff: ≥ 0.05 s⁻¹
